Measurements reported in patent EP4755449A2 (CHUGAI SEIYAKU KABUSHIKI KAISHA, dated 2026).
Where a chain is given by its changes, count along the chain named. Names and notes keep the numbering of the source.

Legend:
[1] = target: T1, human Fc gamma RIIaH extracellular domain, His-tagged (human, UniProt P12318 34-217); assay: SPR 25C
T1 construct: also called FcgRIIaH; human Fc gamma RIIa (type H)
T1 sequence: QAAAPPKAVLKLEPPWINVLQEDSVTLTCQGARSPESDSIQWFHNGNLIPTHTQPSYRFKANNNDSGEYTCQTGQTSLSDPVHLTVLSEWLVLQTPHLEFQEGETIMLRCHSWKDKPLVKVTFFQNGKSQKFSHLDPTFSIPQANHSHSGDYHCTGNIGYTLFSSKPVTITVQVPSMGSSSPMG

[2] = target: T2, human Fc gamma RIIb extracellular domain, His-tagged (human, UniProt P31994 43-217); assay: SPR 25C
T2 construct: also called FcgRIIb
T2 sequence: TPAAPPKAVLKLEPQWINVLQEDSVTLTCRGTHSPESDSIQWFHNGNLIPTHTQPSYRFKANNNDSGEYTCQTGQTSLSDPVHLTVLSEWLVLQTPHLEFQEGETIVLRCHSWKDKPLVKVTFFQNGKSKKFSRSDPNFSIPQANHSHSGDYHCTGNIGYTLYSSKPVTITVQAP

[3] = target: T3, cyno Fc gamma RIIIaS extracellular domain, His-tagged (cynomolgus monkey, UniProt Q8SPW2 21-206 at identity 1.00)); assay: SPR 25C
T3 construct: also called cynoFcgRIIIaS
T3 chain: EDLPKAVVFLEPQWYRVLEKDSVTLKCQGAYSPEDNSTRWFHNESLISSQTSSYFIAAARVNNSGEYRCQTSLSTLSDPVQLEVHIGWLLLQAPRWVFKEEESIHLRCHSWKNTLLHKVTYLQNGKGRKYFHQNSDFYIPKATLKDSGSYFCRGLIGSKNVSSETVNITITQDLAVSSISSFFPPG

GST-hMSTN 61-160aa = target: T4, GST-hMSTN 61-160aa (human, UniProt O14793 61-160); assay: Western blot
T4 construct: not shown: GST tag of pGEX4.1 vector
T4 sequence: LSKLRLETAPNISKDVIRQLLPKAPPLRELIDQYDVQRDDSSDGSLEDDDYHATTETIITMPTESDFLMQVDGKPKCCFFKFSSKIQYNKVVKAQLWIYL

GST-hMSTN 81-180aa = target: T5, GST-hMSTN 81-180aa (human, UniProt A1C2U3 81-180 (Pongo pygmaeus entry)); assay: Western blot
T5 construct: not shown: GST tag of pGEX4.1 vector
T5 sequence: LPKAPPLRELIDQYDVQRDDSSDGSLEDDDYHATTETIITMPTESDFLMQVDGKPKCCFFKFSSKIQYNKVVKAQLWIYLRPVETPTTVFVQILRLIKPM

GST-hMSTN 101-200aa = target: T6, GST-hMSTN 101-200aa (human, UniProt A1C2U3 101-200 (Pongo pygmaeus entry)); assay: Western blot
T6 construct: not shown: GST tag of pGEX4.1 vector
T6 sequence: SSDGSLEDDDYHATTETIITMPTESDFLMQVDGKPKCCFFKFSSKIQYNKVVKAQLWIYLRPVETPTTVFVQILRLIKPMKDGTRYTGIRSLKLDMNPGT

GST-hMSTN 121-220aa = target: T7, GST-hMSTN 121-220aa (human, UniProt A1C2U3 121-220 (Pongo pygmaeus entry)); assay: Western blot
T7 construct: not shown: GST tag of pGEX4.1 vector
T7 sequence: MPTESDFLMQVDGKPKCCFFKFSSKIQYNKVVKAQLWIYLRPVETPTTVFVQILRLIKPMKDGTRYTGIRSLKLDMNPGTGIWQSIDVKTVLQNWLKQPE

GST-hMSTN 141-241aa = target: T8, GST-hMSTN 141-241aa (human, UniProt A1C2U3 141-241 (Pongo pygmaeus entry)); assay: Western blot
T8 construct: not shown: GST tag of pGEX4.1 vector
T8 sequence: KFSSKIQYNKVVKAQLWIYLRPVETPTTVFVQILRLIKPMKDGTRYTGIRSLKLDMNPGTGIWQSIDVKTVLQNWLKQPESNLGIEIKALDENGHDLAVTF

human latent myostatin [4] = target: T9, human latent myostatin (human, UniProt O14793 25-266; O14793 267-375); assay: SPR, dissociation phase at pH5.8
T9 construct: non-covalent complex of two propeptides and the mature homodimer; also called human myostatin latent form
T9 sequence 1: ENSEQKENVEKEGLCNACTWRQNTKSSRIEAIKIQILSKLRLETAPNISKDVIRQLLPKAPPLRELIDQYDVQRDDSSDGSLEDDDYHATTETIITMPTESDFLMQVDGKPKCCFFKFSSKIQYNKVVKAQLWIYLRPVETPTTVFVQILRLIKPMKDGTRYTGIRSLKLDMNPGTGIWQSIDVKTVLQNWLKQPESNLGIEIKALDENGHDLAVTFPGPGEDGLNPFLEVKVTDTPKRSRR
T9 sequence 2: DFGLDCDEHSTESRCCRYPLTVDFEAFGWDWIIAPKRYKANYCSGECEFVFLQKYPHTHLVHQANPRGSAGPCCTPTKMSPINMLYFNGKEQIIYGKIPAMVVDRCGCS

human latent myostatin [5] = target: T9, human latent myostatin; assay: SPR, dissociation phase at pH5.8; remark: listed apart in the source
[6] = target: T10, cynomolgus monkey latent myostatin (cynomolgus monkey, UniProt Q95J86 25-266; Q95J86 267-375, limits assumed); assay: SPR 37C
T10 construct: also called cyno latent myostatin
T10 sequence 1: T9 sequence 1 with V52A
T10 sequence 2: T9 sequence 2

human latent myostatin [7] = target: T9, human latent myostatin; assay: SPR 37C pH7.4
mouse latent myostatin = target: T11, mouse latent myostatin (mouse, UniProt O08689 26-267; O08689 268-376); assay: SPR 37C pH7.4
T11 sequence 1: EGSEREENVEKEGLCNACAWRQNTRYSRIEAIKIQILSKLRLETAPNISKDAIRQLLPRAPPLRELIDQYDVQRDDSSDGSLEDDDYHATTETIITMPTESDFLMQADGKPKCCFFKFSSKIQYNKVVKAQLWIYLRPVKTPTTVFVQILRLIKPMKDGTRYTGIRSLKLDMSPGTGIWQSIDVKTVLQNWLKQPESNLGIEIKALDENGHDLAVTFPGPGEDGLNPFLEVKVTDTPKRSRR
T11 sequence 2: T9 sequence 2

[8] = target: T10, cynomolgus monkey latent myostatin; assay: SPR 37C pH5.8; pH 5.8
[9] = target: T10, cynomolgus monkey latent myostatin; assay: SPR 37C pH7.4; pH 7.4
[10] = target: T12, human Fc gamma RIIaR extracellular domain, His-tagged (human, UniProt P12318 34-217); assay: SPR 25C
T12 construct: also called FcgRIIaR; human Fc gamma RIIa (type R)
T12 chain: T1 sequence with H134R

[11] = target: T13, human Fc gamma RIIIaV extracellular domain, His-tagged (human, UniProt P08637 17-208); assay: SPR 25C
T13 construct: also called FcgRIIIaV
T13 sequence (P08637 17-208 F176V): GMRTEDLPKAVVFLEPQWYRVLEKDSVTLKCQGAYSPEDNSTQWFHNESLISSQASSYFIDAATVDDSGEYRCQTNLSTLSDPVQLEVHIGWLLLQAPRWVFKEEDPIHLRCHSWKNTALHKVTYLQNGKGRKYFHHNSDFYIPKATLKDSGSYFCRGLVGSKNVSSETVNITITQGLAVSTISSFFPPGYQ

B1: M103205H795-MY009/M103202L889-SK1 (antibody, human IgG1, kappa)
heavy: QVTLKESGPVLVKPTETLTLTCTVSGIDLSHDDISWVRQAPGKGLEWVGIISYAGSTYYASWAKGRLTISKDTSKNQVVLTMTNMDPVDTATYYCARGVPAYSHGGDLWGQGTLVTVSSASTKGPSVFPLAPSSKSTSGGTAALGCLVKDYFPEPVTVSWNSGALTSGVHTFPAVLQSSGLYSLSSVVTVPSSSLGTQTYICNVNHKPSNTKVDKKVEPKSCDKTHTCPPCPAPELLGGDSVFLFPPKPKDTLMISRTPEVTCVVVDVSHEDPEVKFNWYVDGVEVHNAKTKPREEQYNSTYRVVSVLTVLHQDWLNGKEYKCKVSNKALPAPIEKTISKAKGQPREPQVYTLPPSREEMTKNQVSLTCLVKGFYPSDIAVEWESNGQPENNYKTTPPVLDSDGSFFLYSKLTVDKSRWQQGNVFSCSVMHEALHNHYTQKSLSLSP
light: DIVMTQSPATLSLSPGERATLSCTSSQSVYHANWLSWFQQKPGQPPKLLIYWASTLAYGVPSRFSGSGSGTDFTLTISSLQPEDAATYYCAGGYGGGRYAFGQGTKVEIKRTVAAPSVFIFPPSDEQLKSGTASVVCLLNNFYPREAKVQWKVDNALQSGNSQESVTEQDSKDSTYSLSSTLTLSKADYEKHKVYACEVTHQGLSSPVTKSFNRGEC
notes: SG1 with P238D (EU); also called MS1032LO06-MY009; copies: 2 + 2
binding result [1]: binds | binding result [2]: binds | binding result [3]: binds

B2: MST1572 (antibody, human IgG1, kappa, V domains shown)
VH: QSVEESGGRLVTPGTPLTLTCTVSGFSLSSYAMSWVRQAPGKGLEWIGIIYGVGSTYYASWAKGRFTISKTSTTVDLKIASPTTEDTATYFCARDDYGWGYTNLWGPGTLVTVSS
VL: QVLTQTPSSVSAAVGGTVTINCQSSQSVYNNNYLAWFQQKPGQPPKLLIYDASKLASGVPSRFKGSGSGTQFTLTISGVQCDDAATYYCQGSYYSSGWYRAFGGGTKVEIKR
binding result (GST-hMSTN 61-160aa): no binding | binding result (GST-hMSTN 81-180aa): no binding | binding result (GST-hMSTN 101-200aa): no binding | binding result (GST-hMSTN 121-220aa): no binding | binding result (GST-hMSTN 141-241aa): no binding

B3: Ab002 (M103205H001/M103202L000) (antibody, V domains shown)
VH: QVTLKESGPVLVKPTETLTLTCTVSGIDLSHYDISWVRQAPGKGLEWVGIISYAGSTYYASWAKGRLTISKDTSKNQVVLTMTNMDPVDTATYYCARGVPAYSTGGDLWGQGTLVTVSS
VL: DIVMTQSPATLSLSPGERATLSCQSSQSVYDNNWLSWFQQKPGQPPKLLIYWASTLASGVPSRFSGSGSGTDFTLTISSLQPEDAATYYCAGGYGGGLYAFGQGTKVEIKR
notes: variant of MS1032LO00-SG1
fold faster dissociation rate at pH5.8 than Ab001 (human latent myostatin [4]): 200 fold | koff (human latent myostatin [5]): 0.00609 s⁻¹

B4: MS_M103205H1186-SG1/M103202L889-SK1 (antibody, human IgG1, kappa, V domains shown)
VH: B3 VH with Y32D, S56K, T57K, T104H
VL: B3 VL with Q24T, D31H, N32A, S58Y, L98R
notes: also called MS1032LO18-SG1
ratio of KD at pH 5.8/pH7.4 [6]: 229 | Kd (human latent myostatin [7]): 0.329 nM | Kd (mouse latent myostatin): 0.272 nM | Kd [8]: 80.9 nM | Kd [9]: 0.354 nM

B5: MST1538 (antibody, human IgG1, kappa, V domains shown)
VH: QSLEESGGGLVKPGGTLTLTCKASGIDFSSYYYMCWVRQAPGKGLEWIACIYAGISGSTYYASWAKGRFTISKTSSTTVTLQMTSLTAADTATYFCARDPYHFDYGSLWGPGTLVTVSS
VL: ALVMTQTPASVSAAVGGTVTINCQASQSVYGGNELSWYQQEPGQPPKLLIYSASKLASGVPSRFKGSGSGTQFTLTISGVQCDDAAAYYCAGYRTYSDDDNAFGGGTKVEIKR
binding result (GST-hMSTN 61-160aa): no binding | binding result (GST-hMSTN 81-180aa): no binding | binding result (GST-hMSTN 101-200aa): no binding | binding result (GST-hMSTN 121-220aa): no binding | binding result (GST-hMSTN 141-241aa): no binding

B6: GpH7-B3 G237D/GpL16-k0 (antibody, human IgG1, kappa)
heavy: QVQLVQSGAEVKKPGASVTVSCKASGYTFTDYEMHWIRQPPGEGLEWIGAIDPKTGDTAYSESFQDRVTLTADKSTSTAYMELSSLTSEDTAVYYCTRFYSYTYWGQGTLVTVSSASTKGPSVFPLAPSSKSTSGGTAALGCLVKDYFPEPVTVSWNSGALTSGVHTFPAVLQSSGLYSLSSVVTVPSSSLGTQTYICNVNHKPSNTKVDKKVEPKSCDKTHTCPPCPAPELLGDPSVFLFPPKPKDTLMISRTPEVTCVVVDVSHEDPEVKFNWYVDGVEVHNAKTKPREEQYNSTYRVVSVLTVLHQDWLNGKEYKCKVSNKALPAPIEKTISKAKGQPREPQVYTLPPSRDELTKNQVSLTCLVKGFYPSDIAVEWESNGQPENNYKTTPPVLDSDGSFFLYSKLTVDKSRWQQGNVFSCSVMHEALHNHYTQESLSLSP
light: DIVMTQSPLSLPVTPGEPASISCQASESLVHSNRNTYLHWYLQKPGQSPQLLIYKVSNRFSGVPDRFSGSGSGTDFTLKISRVEAEDVGVYYCSQNTHVPPTFGQGTKVEIERTVAAPSVFIFPPSDEQLKSGTASVVCLLNNFYPREAKVQWKVDNALQSGNSQESVTEQDSKDSTYSLSSTLTLSKADYEKHKVYACEVTHQGLSSPVTKSFNRGEC
notes: copies: 2 + 2
relative binding [10]: 0 parent B3=100 | relative binding [11]: 0 parent B3=100
